The text below walks through data of the Human Domainome abundance scans (Beltran et al. 2025).

± gives the uncertainty stated by the source.

The labels stand for the following.
B1: Pyruvate dehydrogenase protein X component, mitochondrial, residues 181 to 227; numbered along this chain, O00330 (parent)
chain: RFRLSPAARNILEKHSLDASQGTATGPRGIFTKEDALKLVQLKQTGK

The data set covers variants of B1. Nature of the data set: abundance fitness (aPCA) (normalised: wild type 0, dead -1); higher = more abundant; growth selection in yeast, the domain comes from the species named. Conditions: Homo sapiens.
As to RFRLSPAARNILEKHSYDASQGTATGPRGIFTKEDALKLVQLKQTGK [L17Y], the abundance fitness was -0.691 ± 0.17.

As for RFRLSPAARNILEKHSQDASQGTATGPRGIFTKEDALKLVQLKQTGK [L17Q], the abundance fitness is -0.483 ± 0.12.

Regarding RFRLSPAARNILEKHSEDASQGTATGPRGIFTKEDALKLVQLKQTGK [L17E], the abundance fitness is -0.33 ± 0.068.

Regarding RFRLSPAARNILEKHSHDASQGTATGPRGIFTKEDALKLVQLKQTGK [L17H], the abundance fitness is -0.308 ± 0.12.

Take RFRLSPAARNILEKHSGDASQGTATGPRGIFTKEDALKLVQLKQTGK [L17G]: the abundance fitness was -0.575 ± 0.05.

Take RFRLSPAARNILEKHSPDASQGTATGPRGIFTKEDALKLVQLKQTGK [L17P]: the abundance fitness is -0.07 ± 0.081.

Take RFRLSPAARNILEKHSTDASQGTATGPRGIFTKEDALKLVQLKQTGK [L17T]: the abundance fitness is -0.31 ± 0.092.

Regarding RFRLSPAARNILEKHSADASQGTATGPRGIFTKEDALKLVQLKQTGK [L17A], the abundance fitness was -0.506 ± 0.056.

With RFRLSPAARNILEKHSIDASQGTATGPRGIFTKEDALKLVQLKQTGK [L17I], the abundance fitness is -0.22 ± 0.15.

As to RFRLSPAARNILEKHSRDASQGTATGPRGIFTKEDALKLVQLKQTGK [L17R], the abundance fitness was -0.856 ± 0.082.

On to RFRLSPAARNILEKHSVDASQGTATGPRGIFTKEDALKLVQLKQTGK [L17V], for which the abundance fitness was -0.331 ± 0.053.

With RFRLSPAARNILEKHSMDASQGTATGPRGIFTKEDALKLVQLKQTGK [L17M], the abundance fitness was -0.134 ± 0.098.

Consider RFRLSPAARNILEKHSNDASQGTATGPRGIFTKEDALKLVQLKQTGK [L17N], for which the abundance fitness is -0.687 ± 0.066.

Consider RFRLSPAARNILEKHSSDASQGTATGPRGIFTKEDALKLVQLKQTGK [L17S], for which the abundance fitness was -0.486 ± 0.057.

For the variant RFRLSPAARNILEKHSKDASQGTATGPRGIFTKEDALKLVQLKQTGK [L17K], the abundance fitness was -0.509 ± 0.076.

As for RFRLSPAARNILEKHSFDASQGTATGPRGIFTKEDALKLVQLKQTGK [L17F], the abundance fitness was -0.635 ± 0.085.

With RFRLSPAARNILEKHSDDASQGTATGPRGIFTKEDALKLVQLKQTGK [L17D], the abundance fitness was -0.534 ± 0.14.

As for RFRLSPAARNILEKHSCDASQGTATGPRGIFTKEDALKLVQLKQTGK [L17C], the abundance fitness was -0.244 ± 0.11.

As for RFRLSPAARNILEKHSWDASQGTATGPRGIFTKEDALKLVQLKQTGK [L17W], the abundance fitness is -0.57 ± 0.055.

In the case of RFRLSPAARNILEKHSLDAVQGTATGPRGIFTKEDALKLVQLKQTGK [S20V], the abundance fitness was -0.369 ± 0.043.

On to RFRLSPAARNILEKHSLDAQQGTATGPRGIFTKEDALKLVQLKQTGK [S20Q], for which the abundance fitness was -0.242 ± 0.067.

In the case of RFRLSPAARNILEKHSLDAFQGTATGPRGIFTKEDALKLVQLKQTGK [S20F], the abundance fitness is -0.545 ± 0.068.

Turning to RFRLSPAARNILEKHSLDAMQGTATGPRGIFTKEDALKLVQLKQTGK [S20M], the abundance fitness was -0.18 ± 0.075.

Regarding RFRLSPAARNILEKHSLDAGQGTATGPRGIFTKEDALKLVQLKQTGK [S20G], the abundance fitness is -0.192 ± 0.053.

Take RFRLSPAARNILEKHSLDAEQGTATGPRGIFTKEDALKLVQLKQTGK [S20E]: the abundance fitness amounted to 0.034 ± 0.052.

In the case of RFRLSPAARNILEKHSLDATQGTATGPRGIFTKEDALKLVQLKQTGK [S20T], the abundance fitness is -0.109 ± 0.051.

As for RFRLSPAARNILEKHSLDAPQGTATGPRGIFTKEDALKLVQLKQTGK [S20P], the abundance fitness was -0.257 ± 0.061.

In the case of RFRLSPAARNILEKHSLDAIQGTATGPRGIFTKEDALKLVQLKQTGK [S20I], the abundance fitness is -0.655 ± 0.17.

For the variant RFRLSPAARNILEKHSLDADQGTATGPRGIFTKEDALKLVQLKQTGK [S20D], the abundance fitness was 0.087 ± 0.082.

On to RFRLSPAARNILEKHSLDACQGTATGPRGIFTKEDALKLVQLKQTGK [S20C], for which the abundance fitness is -0.305 ± 0.094.

As to RFRLSPAARNILEKHSLDAAQGTATGPRGIFTKEDALKLVQLKQTGK [S20A], the abundance fitness is -0.056 ± 0.045.

Regarding RFRLSPAARNILEKHSLDAKQGTATGPRGIFTKEDALKLVQLKQTGK [S20K], the abundance fitness is -0.108 ± 0.046.

As for RFRLSPAARNILEKHSLDARQGTATGPRGIFTKEDALKLVQLKQTGK [S20R], the abundance fitness was -0.284 ± 0.047.

Take RFRLSPAARNILEKHSLDALQGTATGPRGIFTKEDALKLVQLKQTGK [S20L]: the abundance fitness is -0.345 ± 0.049.

As to RFRLSPAARNILEKNSLDASQGTATGPRGIFTKEDALKLVQLKQTGK [H15N], the abundance fitness was determined as 0.019 ± 0.078.

On to RFRLSPAARNILEKTSLDASQGTATGPRGIFTKEDALKLVQLKQTGK [H15T], for which the abundance fitness is -0.361 ± 0.075.

On to RFRLSPAARNILEKASLDASQGTATGPRGIFTKEDALKLVQLKQTGK [H15A], for which the abundance fitness was -0.276 ± 0.069.

As for RFRLSPAARNILEKQSLDASQGTATGPRGIFTKEDALKLVQLKQTGK [H15Q], the abundance fitness is -0.341 ± 0.05.

RFRLSPAARNILEKFSLDASQGTATGPRGIFTKEDALKLVQLKQTGK [H15F]: the abundance fitness was -0.294 ± 0.077.

For the variant RFRLSPAARNILEKISLDASQGTATGPRGIFTKEDALKLVQLKQTGK [H15I], the abundance fitness is -0.906 ± 0.16.

As to RFRLSPAARNILEKPSLDASQGTATGPRGIFTKEDALKLVQLKQTGK [H15P], the abundance fitness is -0.575 ± 0.072.

RFRLSPAARNILEKVSLDASQGTATGPRGIFTKEDALKLVQLKQTGK [H15V]: the abundance fitness was -0.506 ± 0.053.

For the variant RFRLSPAARNILEKSSLDASQGTATGPRGIFTKEDALKLVQLKQTGK [H15S], the abundance fitness is -0.517 ± 0.075.

As for RFRLSPAARNILEKMSLDASQGTATGPRGIFTKEDALKLVQLKQTGK [H15M], the abundance fitness was -0.1 ± 0.082.

Consider RFRLSPAARNILEKKSLDASQGTATGPRGIFTKEDALKLVQLKQTGK [H15K], for which the abundance fitness is -0.42 ± 0.085.

As for RFRLSPAARNILEKWSLDASQGTATGPRGIFTKEDALKLVQLKQTGK [H15W], the abundance fitness is -0.191 ± 0.082.

Take RFRLSPAARNILEKYSLDASQGTATGPRGIFTKEDALKLVQLKQTGK [H15Y]: the abundance fitness is -0.176 ± 0.09.

In the case of RFRLSPAARNILEKRSLDASQGTATGPRGIFTKEDALKLVQLKQTGK [H15R], the abundance fitness is -0.985 ± 0.077.

Turning to RFRLSPAARNILEKGSLDASQGTATGPRGIFTKEDALKLVQLKQTGK [H15G], the abundance fitness is -0.255 ± 0.052.

With RFRLSPAARNILEKESLDASQGTATGPRGIFTKEDALKLVQLKQTGK [H15E], the abundance fitness was -0.138 ± 0.064.

On to RFRLSPAARNILEKLSLDASQGTATGPRGIFTKEDALKLVQLKQTGK [H15L], for which the abundance fitness is -0.813 ± 0.078.

RFRLSPAARNILEKDSLDASQGTATGPRGIFTKEDALKLVQLKQTGK [H15D]: the abundance fitness was -0.283 ± 0.06.

With RFRLSPAARNILEYHSLDASQGTATGPRGIFTKEDALKLVQLKQTGK [K14Y], the abundance fitness was -0.3 ± 0.1.

For the variant RFRLSPAARNILERHSLDASQGTATGPRGIFTKEDALKLVQLKQTGK [K14R], the abundance fitness was -0.293 ± 0.053.

For the variant RFRLSPAARNILEQHSLDASQGTATGPRGIFTKEDALKLVQLKQTGK [K14Q], the abundance fitness amounted to 0 ± 0.075.
